The Kd is the equilibrium constant for the complex coming apart. Lower therefore signals a tighter complex. What is called koff is a measure of how fast the partners let go of each other. A higher koff goes with fast dissociation. One may read the kon as the rate constant with which the complex forms. Read a low kon as slow association.

For assay [1], the target named is T1, human IL4 (IL004, Millipore) (human, UniProt P05112 25-153).
T1 construct: Bought protein, used as analyte in SPR; also called interleukin IL4
T1 sequence (looked up): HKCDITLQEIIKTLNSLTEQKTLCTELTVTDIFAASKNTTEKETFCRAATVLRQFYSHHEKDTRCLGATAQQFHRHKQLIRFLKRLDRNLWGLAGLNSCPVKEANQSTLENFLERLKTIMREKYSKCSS
The assay can be described thus: SPR (Biacore 3000), construct captured, IL4 as analyte; summary table. How it is done: (§1) Binding of antigens to the antibody constructs was measured using surface plasmon resonance (SPR) on a BIAcore 3000 instrument (GE Healthcare) with HBS-EP buffer (GE Healthcare). As antigens human IL4 (IL004, Millipore) and human IL13 (IL012, Millipore) were used. The capture antibody (human antibody capture kit, His capture kit, Fab capture kit, GE Life Sciences) was immobilized via primary amine groups (11000 RU) on a research grade CMS chip (GE Life Sciences) using standard procedures. […] The antigens human IL4 and human IL13 were used as analytes and injected for 240 sec with a dissociation time of 300 sec at a flow rate of 30 μL/min. IL4 and IL13 were used in a dilution series of 0.1 nM to 3 nM and 0.8 nM to 25 nM, respectively. Chip surfaces were regenerated with 2 min injects of the regeneration buffer provided with the capture kit. Sensorgrams were double referenced with a blank chip surface and HBS-EP buffer blanks. Recombinant human neonatal Fc-receptor (FcRn) protein was immobilized via primary amine groups (200 RU) in the sample flow cell compartment of a research grade CMS chip (GE Life Sciences) using standard procedures. The reference flow cell compartment was activated and deactivated without FcRn immobilization to generate a blank chip surface. For the analysis an assay buffer with pH 6.0 was used (150 mM NaCl, 20 mM Na-phosphate, 0.05% surfactant P20, pH6.0). The antibody was used as analyte at 800 nM dilution in assay buffer and injected over reference and sample flow cells for 240 sec with a dissociation time of 300 sec at a flow rate of 30 μL/min. Chip surfaces were regenerated with 2 min injects of HBS-EP buffer at 30 μl/min. Sensorgrams were double referenced with a the blank chip surface and HBS-EP buffer blanks. All data analysis was done using the BIAevaluation software v4.1.
A general note: Surface plasmon resonance follows binding to a sensor surface in real time, without labels.

Assay [2] addresses T1, human IL4 (IL004, Millipore). Kind of assay: SPR (Biacore), variant captured with Fab-capture kit, IL4 as analyte. How it is done: as §1
Assay [3] shares this target. The assay can be described thus: SPR (Biacore), variant captured with His-capture kit, IL4 as analyte. On the procedure:
as §1

B1: protein variant (3), CODV-Fab Split CH2 (anti-IL4/anti-IL13) (bispecific antibody, IgG1)
chain 1: DIVLTQSPASLAVSLGQRATISCRASESVDSYGQSYMHWYQQKAGQPPKLLIYLASNLESGVPARFSGSGSRTDFTLTIDPVQAEDAATYYCQQNAEDSRTFGGGTKLEIKGQPKAAPSDIQMTQSPASLSVSVGDTITLTCHASQNIDVWLSWFQQKPGNIPKLLIYKASNLHTGVPSRFSGSGSGTGFTLTISSLQPEDIATYYCQQAHSYPFTFGGGTKLEIKTKGPSVFRTVAAPSVFIFPPSDEQLKSGTASVVCLLNNFYPREAKVQWKVDNALQSGNSQESVTEQDSKDSTYSLSSTLTLSKADYEKHKVYACEVTHQGLSSPVTKSFNRGECGGPSVFLFPPKPKDTLMISRTPEVTCVVVDVSHEDPEVKFNWYVDGVEVHN
chain 2: QVQLQQSGPELVKPGASVKISCKASGYSFTSYWIHWIKQRPGQGLEWIGMIDPSDGETRLNQRFQGRATLTVDESTSTAYMQLRSPTSEDSAVYYCTRLKEYGNYDSFYFDVWGAGTLVTVSSSEVQLKESGPGLVAPGGSLSITCTVSGFSLTDSSINWVRQPPGKGLEWLGMIWGDGRIDYADALKSRLSISKDSSKSQVFLEMTSLRTDDTATYYCARDGYFPYAMDFWGQGTSVTVSSASTKGPSVFPLAPSSKSTSGGTAALGCLVKDYFPEPVTVSWNSGALTSGVHTFPAVLQSSGLYSLSSVVTVPSSSLGTQTYICNVNHKPSNTKVDKKVEPKSCDKGGGAKTKPREEQYNSTYRVVSVLTVLHQDWLNGKEYKCKVSNKALPAPIEKTISKAKGQPREHHHHHH
notes: Fab-like cross-over format with IgG1 split CH2 domain
The molecule B1 returned a Kd in assay [1] of 0.00548 nM. In assay [2], this molecule registered a Ka of 1.83e+11 M⁻¹, a Kd of 0.00548 nM, an off-rate constant (koff) of 0.000452 s⁻¹ and a kon of 8.26e+07 M⁻¹ s⁻¹.

B2: protein variant (2), DVD-Fab Split CH2 (anti-IL4/anti-IL13) (bispecific antibody, IgG1)
chain 1: DIVLTQSPASLAVSLGQRATISCRASESVDSYGQSYMHWYQQKAGQPPKLLIYLASNLESGVPARFSGSGSRTDFTLTIDPVQAEDAATYYCQQNAEDSRTFGGGTKLEIKGGGGSGGGGSDIQMTQSPASLSVSVGDTITLTCHASQNIDVWLSWFQQKPGNIPKLLIYKASNLHTGVPSRFSGSGSGTGFTLTISSLQPEDIATYYCQQAHSYPFTFGGGTKLEIKRTVAAPSVFIFPPSDEQLKSGTASVVCLLNNFYPREAKVQWKVDNALQSGNSQESVTEQDSKDSTYSLSSTLTLSKADYEKHKVYACEVTHQGLSSPVTKSFNRGECGGPSVFLFPPKPKDTLMISRTPEVTCVVVDVSHEDPEVKFNWYVDGVEVHN
chain 2: EVQLKESGPGLVAPGGSLSITCTVSGFSLTDSSINWVRQPPGKGLEWLGMIWGDGRIDYADALKSRLSISKDSSKSQVFLEMTSLRTDDTATYYCARDGYFPYAMDFWGQGTSVTVSSGGGGSGGGGSQVQLQQSGPELVKPGASVKISCKASGYSFTSYWIHWIKQRPGQGLEWIGMIDPSDGETRLNQRFQGRATLTVDESTSTAYMQLRSPTSEDSAVYYCTRLKEYGNYDSFYFDVWGAGTLVTVSSASTKGPSVFPLAPSSKSTSGGTAALGCLVKDYFPEPVTVSWNSGALTSGVHTFPAVLQSSGLYSLSSVVTVPSSSLGTQTYICNVNHKPSNTKVDKKVEPKSCDKGGGAKTKPREEQYNSTYRVVSVLTVLHQDWLNGKEYKCKVSNKALPAPIEKTISKAKGQPREHHHHHH
notes: Fab-like format with IgG1 split CH2 domain
As to B2, in assay [1], the Kd was 0.03 nM. Further, in assay [2], the Ka stood at 5.73e+10 M⁻¹, binding was characterised by a dissociation constant (Kd) of 0.0175 nM, the koff was 0.000259 s⁻¹ and the kon is 1.48e+07 M⁻¹ s⁻¹. In assay [3], this molecule gave a Ka of 3.33e+10 M⁻¹, a Kd of 0.03 nM, a koff of 0.000426 s⁻¹ and a kon of 1.42e+07 M⁻¹ s⁻¹.

These data come from patent US20230103563A1 (Sanofi, published 2023).
